{"source": "paper PMC4731781", "about": "“The β2 clamp in the Mycobacterium tuberculosis DNA polymerase III αβ2ε replicase promotes polymerization and reduces exonuclease activity” (Scientific Reports, 2016)", "key": {"[1]": {"target": "beta2 clamp (Escherichia coli) (UniProt P0A988)", "sequence (P0A988 whole entry)": "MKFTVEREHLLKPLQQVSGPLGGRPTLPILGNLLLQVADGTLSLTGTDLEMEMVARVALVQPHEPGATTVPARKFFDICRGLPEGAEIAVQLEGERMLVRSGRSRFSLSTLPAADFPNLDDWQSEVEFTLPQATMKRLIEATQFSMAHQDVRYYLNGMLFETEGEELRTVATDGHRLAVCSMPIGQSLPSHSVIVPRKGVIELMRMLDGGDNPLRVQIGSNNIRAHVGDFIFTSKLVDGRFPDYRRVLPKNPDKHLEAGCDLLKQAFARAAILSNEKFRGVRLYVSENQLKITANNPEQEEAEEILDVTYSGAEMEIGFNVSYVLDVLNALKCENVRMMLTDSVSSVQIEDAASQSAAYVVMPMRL", "conditions": "cited from earlier work"}, "[2]": {"target": "beta2 clamp (Escherichia coli) (UniProt P0A988)", "conditions": "cited from earlier work", "remark": "listed apart in the source"}, "[3]": {"target": "T1, Mtb DNA Pol III α subunit (DnaE1), purified recombinant (Mycobacterium tuberculosis, UniProt P9WNT7 1-1184)", "T1 construct": "also called Mtb α; MtbDnaE1; source: E. coli, purified", "T1 sequence": "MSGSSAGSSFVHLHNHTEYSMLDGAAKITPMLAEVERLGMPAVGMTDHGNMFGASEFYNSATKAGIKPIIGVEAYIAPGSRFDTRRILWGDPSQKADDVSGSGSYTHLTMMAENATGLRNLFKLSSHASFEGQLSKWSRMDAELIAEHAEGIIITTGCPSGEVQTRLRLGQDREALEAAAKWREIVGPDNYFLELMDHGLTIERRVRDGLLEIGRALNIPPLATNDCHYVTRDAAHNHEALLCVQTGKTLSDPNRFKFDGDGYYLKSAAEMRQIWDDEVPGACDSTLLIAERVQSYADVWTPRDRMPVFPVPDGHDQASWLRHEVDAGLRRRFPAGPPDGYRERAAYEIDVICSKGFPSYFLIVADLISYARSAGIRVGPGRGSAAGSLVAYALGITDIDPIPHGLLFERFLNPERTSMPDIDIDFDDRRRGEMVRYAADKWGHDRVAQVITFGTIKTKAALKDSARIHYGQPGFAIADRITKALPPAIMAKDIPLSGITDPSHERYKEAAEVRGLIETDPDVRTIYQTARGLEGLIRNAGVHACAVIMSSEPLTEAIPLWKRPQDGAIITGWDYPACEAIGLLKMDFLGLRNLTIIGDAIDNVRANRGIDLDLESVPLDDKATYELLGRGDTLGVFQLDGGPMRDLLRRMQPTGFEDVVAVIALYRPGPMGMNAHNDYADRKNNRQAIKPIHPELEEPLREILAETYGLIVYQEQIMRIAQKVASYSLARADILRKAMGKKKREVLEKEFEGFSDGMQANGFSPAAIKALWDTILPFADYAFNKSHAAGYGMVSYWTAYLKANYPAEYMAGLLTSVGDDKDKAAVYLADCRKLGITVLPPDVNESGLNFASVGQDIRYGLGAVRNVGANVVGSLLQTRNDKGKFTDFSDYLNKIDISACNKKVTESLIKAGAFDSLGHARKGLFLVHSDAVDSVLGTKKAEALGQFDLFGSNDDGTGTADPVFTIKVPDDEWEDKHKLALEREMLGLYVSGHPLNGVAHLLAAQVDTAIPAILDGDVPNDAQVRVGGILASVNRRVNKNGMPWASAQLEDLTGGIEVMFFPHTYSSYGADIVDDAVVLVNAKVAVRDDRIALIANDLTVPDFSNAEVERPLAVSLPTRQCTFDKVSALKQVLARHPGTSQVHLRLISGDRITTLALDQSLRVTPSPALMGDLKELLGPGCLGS", "test": "SPR; BIAcore3000, β subunit amine-coupled to the chip (about 1800 RU); α injected at 0.01, 0.1 and 1 μM in 50 mM HEPES pH 7.5, 100 mM NaCl, 0.005% Tween20, 30 μl/min; global fit to a 1:1 Langmuir model", "conditions": "both partners purified"}, "[4]": {"target": "T2, Mtb DNA Pol III δ subunit (HolA) (Mycobacterium tuberculosis, UniProt P71730 1-322)", "T2 sequence": "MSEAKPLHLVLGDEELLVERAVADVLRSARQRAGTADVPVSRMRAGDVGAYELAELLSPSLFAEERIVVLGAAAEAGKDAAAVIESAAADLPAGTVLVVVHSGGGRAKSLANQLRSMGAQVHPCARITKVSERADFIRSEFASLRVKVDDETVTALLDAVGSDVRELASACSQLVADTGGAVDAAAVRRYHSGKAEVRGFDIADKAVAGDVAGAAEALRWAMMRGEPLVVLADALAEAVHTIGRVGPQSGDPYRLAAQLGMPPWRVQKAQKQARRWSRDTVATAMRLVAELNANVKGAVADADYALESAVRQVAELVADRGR", "test": "co-purification, densitometry of an SDS-PAGE gel", "conditions": "partners not purified"}, "[5]": {"target": "T3, Mtb DNA Pol III δ’ subunit (HolB) (Mycobacterium tuberculosis, UniProt Q7D554 1-404)", "T3 sequence": "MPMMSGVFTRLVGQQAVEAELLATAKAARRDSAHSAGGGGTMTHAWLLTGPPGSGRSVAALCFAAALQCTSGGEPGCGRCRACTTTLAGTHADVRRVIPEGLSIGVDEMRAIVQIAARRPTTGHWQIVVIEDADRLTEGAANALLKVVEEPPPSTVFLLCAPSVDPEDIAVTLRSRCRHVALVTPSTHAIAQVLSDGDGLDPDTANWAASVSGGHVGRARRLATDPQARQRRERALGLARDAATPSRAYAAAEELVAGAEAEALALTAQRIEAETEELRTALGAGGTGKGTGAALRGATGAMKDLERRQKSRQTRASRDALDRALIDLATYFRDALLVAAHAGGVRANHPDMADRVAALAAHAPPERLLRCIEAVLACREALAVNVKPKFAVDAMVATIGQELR", "test": "co-purification, densitometry of an SDS-PAGE gel", "conditions": "partners not purified"}}, "note": "Where two headings read alike, the source gives them in different places."}
{"molecule": "DNA polymerase III epsilon (from UniProt P03007)", "values": [{"measurement": "Kd", "setting": "[1]", "value": 200, "unit": "µM"}]}
{"molecule": "DNA polymerase III alpha (from UniProt P10443)", "values": [{"measurement": "Kd", "setting": "[2]", "value": 1200, "unit": "nM"}]}
{"molecule": "Mtb DNA Pol III β2 clamp (DnaN), purified recombinant (natural protein, DNA polymerase III β subunit (sliding clamp) DnaN of Mycobacterium tuberculosis; also called β subunit; β clamp) MDAATTRVGLTDLTFRLLRESFADAVSWVAKNLPARPAVPVLSGVLLTGSDNGLTISGFDYEVSAEAQVGAEIVSPGSVLVSGRLLSDITRALPNKPVDVHVEGNRVALTCGNARFSLPTMPVEDYPTLPTLPEETGLLPAELFAEAISQVAIAAGRDDTLPMLTGIRVEILGETVVLAATDRFRLAVRELKWSASSPDIEAAVLVPAKTLAEAAKAGIGGSDVRLSLGTGPGVGKDGLLGISGNGKRSTTRLLDAEFPKFRQLLPTEHTAVATMDVAELIEAIKLVALVADRGAQVRMEFADGSVRLSAGADDVGRAEEDLVVDYAGEPLTIAFNPTYLTDGLSSLRSERVSFGFTTAGKPALLRPVSGDDRPVAGLNGNGPFPAVSTDYVYLLMPVRLPG", "values": [{"measurement": "Kd", "setting": "[3]", "value": 10.9, "unit": "nM"}]}
{"molecule": "Mtb DNA Pol III τ subunit (DnaZX) (natural protein, Three copies in the clamp loader τ3δδ’ by densitometry) MALYRKYRPASFAEVVGQEHVTAPLSVALDAGRINHAYLFSGPRGCGKTSSARILARSLNCAQGPTANPCGVCESCVSLAPNAPGSIDVVELDAASHGGVDDTRELRDRAFYAPVQSRYRVFIVDEAHMVTTAGFNALLKIVEEPPEHLIFIFATTEPEKVLPTIRSRTHHYPFRLLPPRTMRALLARICEQEGVVVDDAVYPLVIRAGGGSPRDTLSVLDQLLAGAADTHVTYTRALGLLGVTDVALIDDAVDALAACDAAALFGAIESVIDGGHDPRRFATDLLERFRDLIVLQSVPDAASRGVVDAPEDALDRMREQAARIGRATLTRYAEVVQAGLGEMRGATAPRLLLEVVCARLLLPSASDAESALLQRVERIETRLDMSIPAPQAVPRPSAAAAEPKHQPAREPRPVLAPTPASSEPTVAAVRSMWPTVRDKVRLRSRTTEVMLAGATVRALEDNTLVLTHESAPLARRLSEQRNADVLAEALKDALGVNWRVRCETGEPAAAASPVGGGANVATAKAVNPAPTANSTQRDEEEHMLAEAGRGDPSPRRDPEEVALELLQNELGARRIDNA", "values": [{"measurement": "stoichiometry N", "setting": "[4]", "value": "3 τ per δ"}, {"measurement": "stoichiometry N", "setting": "[5]", "value": "3 τ per δ’"}]}
